Experimental data: article PMC10842378

Assays:
[1] = biological target: FLAG-AP-DHX15 wild type (human) (UniProt O43143); assay: proximity labelling
[2] = biological target: FLAG-AP-DHX15 wild type (human) (UniProt O43143); assay: split reporter

FLAG-AP-DHX15 wild type (human), sequence (O43143 whole entry): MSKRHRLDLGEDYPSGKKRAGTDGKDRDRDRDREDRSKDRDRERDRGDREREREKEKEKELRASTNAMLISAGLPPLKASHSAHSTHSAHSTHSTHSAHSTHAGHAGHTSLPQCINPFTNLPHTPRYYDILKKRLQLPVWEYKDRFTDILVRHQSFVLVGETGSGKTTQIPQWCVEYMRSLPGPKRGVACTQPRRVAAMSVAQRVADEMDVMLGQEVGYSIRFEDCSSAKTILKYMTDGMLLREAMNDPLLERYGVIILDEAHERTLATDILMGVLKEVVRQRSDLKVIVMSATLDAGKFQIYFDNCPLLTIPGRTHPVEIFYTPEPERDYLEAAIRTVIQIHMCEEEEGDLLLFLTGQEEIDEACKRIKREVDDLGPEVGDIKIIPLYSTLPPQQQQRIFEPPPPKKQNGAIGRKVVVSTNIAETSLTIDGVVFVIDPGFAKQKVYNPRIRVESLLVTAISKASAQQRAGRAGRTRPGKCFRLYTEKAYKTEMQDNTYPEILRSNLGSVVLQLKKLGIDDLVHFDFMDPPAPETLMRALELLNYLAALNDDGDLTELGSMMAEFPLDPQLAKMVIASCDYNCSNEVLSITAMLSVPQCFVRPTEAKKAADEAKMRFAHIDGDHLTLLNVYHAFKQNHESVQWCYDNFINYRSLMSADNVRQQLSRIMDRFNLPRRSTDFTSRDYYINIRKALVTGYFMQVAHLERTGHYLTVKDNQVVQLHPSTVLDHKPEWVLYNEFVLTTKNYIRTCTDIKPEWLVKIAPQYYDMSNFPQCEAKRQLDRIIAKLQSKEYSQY

## HA-SUGP1-EX with the G-patch domain deleted (ΔGp) (from UniProt Q8IWZ8 1-645) (natural protein)
[1]
  fold increase of HA-SUGP1-EX pull-down: 1.9 fold

## SUGP1 G-patch domain alone fused to an SV40 NLS (Gp-nls), HA-EX construct (domain or fragment)
[2]
  fold increase of total biotinylated protein against FL SUGP1: 3.2 fold
